Source: US20050163775A1, “Combination therapy for B cell disorders” (Genentech, Inc., priority 2003, published 2005)
Bridges are numbered along the chain shown (N, C = ends). Where no end group is shown, it is not given here.

B1: SEQ ID NO 76 (peptide)
peptide: ECFDLLVRRWVDCAFLH
B2: SEQ ID NO 92 (peptide)
peptide: ECFDLLVRKWVPCSTFH
modifications: disulfide 2-13 (inferred)
B3: SEQ ID NO 91 (peptide)
peptide: ECFDLLVRSWVPCTLLS
B4: SEQ ID NO 112 (peptide)
peptide: ECFDILVNAWVPCRVIG
modifications: disulfide 2-13 (inferred)
B5: SEQ ID NO 113 (peptide)
peptide: ECFDRLVNRWVPCNLIV
modifications: disulfide 2-13 (inferred)
B6: SEQ ID NO 107 (peptide)
peptide: ECFDPLVNRWVDCVALH
modifications: disulfide 2-13 (inferred)
B7: SEQ ID NO 88 (peptide)
peptide: ECFDLLVRQWVPCRALM
B8: SEQ ID NO 74 (peptide)
peptide: ECFDLLVRAWVPCWLRL
B9: SEQ ID NO 69 (peptide)
peptide: ECFDLLVRSWVPCGTLM
B10: SEQ ID NO 97 (peptide)
peptide: ECFDILVDRWVPCAILH
modifications: disulfide 2-13 (inferred)
B11: SEQ ID NO 72 (peptide)
peptide: ECFDLLVRAWVRCDMLL
B12: SEQ ID NO 132 (peptide)
peptide: ECFDVLVRAWVPCRALT
modifications: disulfide 2-13 (inferred)
B13: SEQ ID NO 84 (peptide)
peptide: ECFDLLVRAWVPCNELR
B14: SEQ ID NO 85 (peptide)
peptide: ECFDLLVREWVPCRILQ
B15: SEQ ID NO 66 (peptide)
peptide: ECFDLLVRRWVPCEMLG
B16: SEQ ID NO 141 (peptide)
peptide: ECFDSLVRIWVPCGLID
B17: SEQ ID NO 82 (peptide)
peptide: ECFDLLVRVWVPCSRLY
B18: SEQ ID NO 95 (peptide)
peptide: ECFDLLVRQWVSCELLS
B19: SEQ ID NO 139 (peptide)
peptide: ECFDLLVNSWVPCSVIA
modifications: disulfide 2-13 (inferred)
B20: SEQ ID NO 83 (peptide)
peptide: ECFDLLVRQWVPCGALG
B21: SEQ ID NO 68 (peptide)
peptide: ECFDLLVRTWVECSLLN
B22: SEQ ID NO 140 (peptide)
peptide: ECFDTLVRAWVPCSHLT
modifications: disulfide 2-13 (inferred)
B23: SEQ ID NO 102 (peptide)
peptide: ECFDLLVNRWVDCRLLI
B24: SEQ ID NO 108 (peptide)
peptide: ECFDRLVNLWVDCALLN
modifications: disulfide 2-13 (inferred)
B25: SEQ ID NO 105 (peptide)
peptide: ECFDLLVRAWVPCHLID
B26: SEQ ID NO 87 (peptide)
peptide: ECFDLLVRRWVPCSLVK
B27: SEQ ID NO 99 (peptide)
peptide: ECFDPLVARWVPCHLIN
modifications: disulfide 2-13 (inferred)
B28: SEQ ID NO 81 (peptide)
peptide: ECFDLLVRQWVSCQVFA
modifications: disulfide 2-13 (inferred)
B29: SEQ ID NO 93 (peptide)
peptide: ECFDLLVRGWVPCSVLQ
B30: SEQ ID NO 100 (peptide)
peptide: ECFDPLVRVWVDCSILD
modifications: disulfide 2-13 (inferred)
B31: SEQ ID NO 136 (peptide)
peptide: ECFDPLVLRWVPCSALH
modifications: disulfide 2-13 (inferred)
B32: SEQ ID NO 104 (peptide)
peptide: ECFDPLVGRWVPCTLLH
modifications: disulfide 2-13 (inferred)
B33: SEQ ID NO 98 (peptide)
peptide: ECFDRLVGHWVPCAALI
modifications: disulfide 2-13 (inferred)
B34: SEQ ID NO 129 (peptide)
peptide: ECFDGLVNAWVDCGLLR
B35: SEQ ID NO 79 (peptide)
peptide: ECFDLLVRRWVPCELLV
B36: SEQ ID NO 106 (peptide)
peptide: ECFDPLVGHWVPCSVLT
modifications: disulfide 2-13 (inferred)
B37: SEQ ID NO 96 (peptide)
peptide: ECFDLLVRGWVDCSLLL
B38: SEQ ID NO 130 (peptide)
peptide: ECFDPLVRHWVPCRALD
B39: SEQ ID NO 109 (peptide)
peptide: ECFDVLVSAWVDCARLN
modifications: disulfide 2-13 (inferred)
B40: SEQ ID NO 71 (peptide)
peptide: ECFDLLVRTWVPCQAIL
modifications: disulfide 2-13 (inferred)
B41: SEQ ID NO 67 (peptide)
peptide: ECFDLLVRKWVPCQVLG
B42: SEQ ID NO 73 (peptide)
peptide: ECFDLLVRGWVPCEKLM
B43: SEQ ID NO 89 (peptide)
peptide: ECFDLLVRAWVPCSYLS
B44: SEQ ID NO 70 (peptide)
peptide: ECFDLLVRSWVPCHMLR
B45: SEQ ID NO 80 (peptide)
peptide: ECFDLLVRSWVPCYSLK
B46: SEQ ID NO 103 (peptide)
peptide: ECFDPLVRIWVACDRLA
B47: SEQ ID NO 77 (peptide)
peptide: ECFDLLVRSWVPCSSLG
B48: SEQ ID NO 138 (peptide)
peptide: ECFDPLVRDWVPCDLIH
modifications: disulfide 2-13 (inferred)
B49: SEQ ID NO 137 (peptide)
peptide: ECFDALVHRWVPCDLLR
B50: SEQ ID NO 90 (peptide)
peptide: ECFDLLVRDWVPCSLLF
B51: SEQ ID NO 65 (peptide)
peptide: ECFDLLVRQWVPCERIR
B52: SEQ ID NO 94 (peptide)
peptide: ECFDLLVRAWVPCSVLK
B53: SEQ ID NO 135 (peptide)
peptide: ECFDPLVNAWVPCAVLH
modifications: disulfide 2-13 (inferred)
B54: SEQ ID NO 131 (peptide)
peptide: ECFDDLVRHWVPCDLLT
B55: SEQ ID NO 133 (peptide)
peptide: ECFDILVNRWVPCGALT
modifications: disulfide 2-13 (inferred)
B56: SEQ ID NO 142 (peptide)
peptide: ECFDSLVNAWVPCHVLT
modifications: disulfide 2-13 (inferred)
B57: SEQ ID NO 128 (peptide)
peptide: ECFDVLVNAWVDCAVLR
modifications: disulfide 2-13 (inferred)
B58: SEQ ID NO 86 (peptide)
peptide: ECFDLLVRRWVPCSWLL
B59: SEQ ID NO 110 (peptide)
peptide: ECFDSLVRLWVPCNLLR
B60: SEQ ID NO 75 (peptide)
peptide: ECFDLLVRRWVPCGLLR
B61: SEQ ID NO 101 (peptide)
peptide: ECFDSLVNAWVPCSAIR
modifications: disulfide 2-13 (inferred)
B62: SEQ ID NO 134 (peptide)
peptide: ECFDDLVRNWVPCALLN

Molecular target: T1, human BAFF (residues 82-285) (human, UniProt Q9Y275 82-285)
T1 construct: Coated on plates in the ELISAs; also used biotinylated or free in solution for phage sorting; also called BAFF82-285; BLyS82-285
T1 sequence (Q9Y275 82-285): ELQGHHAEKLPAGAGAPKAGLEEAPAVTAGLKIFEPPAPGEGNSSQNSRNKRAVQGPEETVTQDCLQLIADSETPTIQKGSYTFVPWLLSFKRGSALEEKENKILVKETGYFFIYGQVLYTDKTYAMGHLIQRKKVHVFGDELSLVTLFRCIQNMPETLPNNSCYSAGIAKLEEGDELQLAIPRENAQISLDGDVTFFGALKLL
Test: phage display selection on BAFF

Row | Binder | binding result
1 | B1 | binds
2 | B2 | binds
3 | B3 | binds
4 | B4 | binds
5 | B5 | binds
6 | B6 | binds
7 | B7 | binds
8 | B8 | binds
9 | B9 | binds
10 | B10 | binds
11 | B11 | binds
12 | B12 | binds
13 | B13 | binds
14 | B14 | binds
15 | B15 | binds
16 | B16 | binds
17 | B17 | binds
18 | B18 | binds
19 | B19 | binds
20 | B20 | binds
21 | B21 | binds

Row | Binder | binding result
22 | B22 | binds
23 | B23 | binds
24 | B24 | binds
25 | B25 | binds
26 | B26 | binds
27 | B27 | binds
28 | B28 | binds
29 | B29 | binds
30 | B30 | binds
31 | B31 | binds
32 | B32 | binds
33 | B33 | binds
34 | B34 | binds
35 | B35 | binds
36 | B36 | binds
37 | B37 | binds
38 | B38 | binds
39 | B39 | binds
40 | B40 | binds
41 | B41 | binds
42 | B42 | binds

Row | Binder | binding result
43 | B43 | binds
44 | B44 | binds
45 | B45 | binds
46 | B46 | binds
47 | B47 | binds
48 | B48 | binds
49 | B49 | binds
50 | B50 | binds
51 | B51 | binds
52 | B52 | binds
53 | B53 | binds
54 | B54 | binds
55 | B55 | binds
56 | B56 | binds
57 | B57 | binds
58 | B58 | binds
59 | B59 | binds
60 | B60 | binds
61 | B61 | binds
62 | B62 | binds
